Source: US20040228866A1, “Suppressor genes” (Ludwig Institute for Cancer Research, priority 2000, published 2004)

T1: p63γ (Homo sapiens, UniProt Q9H3D4)
T1 construct: expressed in transfected cells; host or cells: Saos-2
T1 sequence (Q9H3D4 1-487 isoform Q9H3D4-5): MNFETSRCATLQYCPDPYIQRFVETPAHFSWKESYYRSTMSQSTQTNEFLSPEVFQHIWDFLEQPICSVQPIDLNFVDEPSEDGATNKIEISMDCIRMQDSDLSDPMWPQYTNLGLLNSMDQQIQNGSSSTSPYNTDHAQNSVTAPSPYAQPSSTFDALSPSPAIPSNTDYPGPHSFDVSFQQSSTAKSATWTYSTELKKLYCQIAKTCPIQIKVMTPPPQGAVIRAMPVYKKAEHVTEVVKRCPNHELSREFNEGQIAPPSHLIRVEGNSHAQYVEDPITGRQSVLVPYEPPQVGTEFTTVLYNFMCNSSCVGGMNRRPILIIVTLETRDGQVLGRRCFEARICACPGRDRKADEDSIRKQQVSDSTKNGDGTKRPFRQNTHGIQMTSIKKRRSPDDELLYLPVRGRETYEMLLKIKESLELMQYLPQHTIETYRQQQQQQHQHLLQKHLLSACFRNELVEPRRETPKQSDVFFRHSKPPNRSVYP


Key:
[1] = target: T2, p53 (Homo sapiens, UniProt P04637); assay: Transient luciferase reporter assay of p53 transactivation function in Saos-2 cells; assay type: cell-based; details: for stimulation of the promoter activity of mdm2 and cyclin G: co-expression with p53; for promoter activity of PIG-3: transient transfection reporter assay
T2 construct: expressed in transfected cells
Experimental: (§1) The amount of luciferase expression was determined as previously described in Samuels-Lev et al. (Mol. Cell 8:781-94, 2001, herein incorporated by reference).
(§2) The amount of transactivation function was determined as described in Example 4.
(§3) To determine the amount of protein expression, Saos-2 cells (5×10^5) were plated 24 hours prior to transfection in 6 cm dishes. […] To determine the amount of gene activation, after transfection, the cells were lysed in Reporter Lysis Buffer 16-24 hours post-wash and assayed using the Luciferase Assay kit (Promega, Wis.). The fold activation of a particular reporter was determined by the activity of the transfected plasmid above the activity of vector alone.
(§4) The expression level of transfected proteins was detected using 40 μg of the respective lysates using the antibodies V5, DX.5410, DO1, 4A4 and p73. […] Results were derived from at least three independent experiments.

[2] = target: T3, p53 (Homo sapiens, UniProt P04637, R181C); assay: as above; assay type: cell-based; details: Bax-luc, FIG. 6B
T3 construct: expressed in transfected cells
Experimental: as §1, §2, §3, §4

[3] = test system: U2OS and MCF7 cells; assay: Apoptosis by FACS in U2OS and MCF7 cells expressing wild-type p53, with or without cisplatin; assay type: cell-based, human; details: no cisplatin
Experimental: The transfected cells were gated, and the apoptotic cells identified by FACS as described in Example 6.
Before exposure to cisplatin (5 and 3 μg/ml respectively), U2OS and MCF7 cells were transfected with plasmids encoding HPV16 E6, iASPP, or 53BP2. Thirty hours later, cells were harvested and analysed as above.
Fragments from the 5′ ends of ASPP1, ASPP2 and iASPP cDNA were cloned into a mammalian expression vector in an antisense orientation and their ability to inhibit the protein synthesis determined in vitro. The antisense nucleic acid molecules were amplified by PCR on the respective plasmid clones using primers spanning the following nucleotide regions (relative to the initial ATG): −74 to 923; −253 to 839 and −37 to 536 for ASPP1, ASPP2 and iASPP respectively. The amplified segments were purified with the QIAquick PCR purification kit (QIAGEN) and ligated in the pcDNA3.1/V5-His TOPO vector (Invitrogen) according to the manufacturer's instructions.
U2OS and MCF-7 cells were transfected with the various expression plasmids prior to the treatment with cisplatin and analyzed using FACS as described above.
To determine the anti-apoptotic role of iASPP, both U2OS and MCF-7 cells were transfected with antisense iASPP and cells analyzed as described above. […] A small increase in apoptotic cells was consistently detected (FIG. 7D).

[4] = target: T2, p53; assay: Co-immunoprecipitation with p53 in transfected Saos-2 cells; assay type: binding
Experimental: The cells were lysed in NP40 lysis buffer and 1000 μg of lysate immunoprecipitated with antibodies to iASPP bound to Protein G beads.

[5] = target: T1, p63γ; assay: Co-immunoprecipitation with p63γ (in vitro translated; transfected H1299 and Saos-2 cells); assay type: binding; details: for interaction with p63γ in vitro: in vitro translated proteins, FIGS. 12B and 12C; for interaction with p63γ in vivo: transfected cells, FIGS. 13A and 13C
Experimental: V5-tagged ASPP1 and ASPP2 proteins were in vitro translated with cold methionine using the TNT T7 Quick coupled Transcription/Translation System (Promega). Cell lysates were incubated at 30° C. for 1 hour and then immunoprecipitated with anti-V5 antibody on protein G agarose beads.
The agarose beads were added to the binding reactions and incubated on a rotating wheel at 4° C. for 16 hours. The beads were then washed with PBS. The bound proteins were released in SDS gel sample buffer and analysed by 10% SDS-polyacrylamide gel electrophoresis (PAGE). The gels were wet transferred on to Protran nitrocellulose membrane and the resulting blots were first incubated with primary antibody and subsequently with the appropriate secondary HRP conjugated antibody (Dako). The blot was exposed to hyperfilm following the use of ECL substrate solution (Amersham Life Science).
Cells were transfected with 1 μg of p63γ or p73α in the presence or absence of 10 μg of ASPP1 or ASPP2. Cell lysate (1 mg) was immunoprecipitated with an antiASPP1 or ASPP2 antibody (see Example 2 and 7). The immunoprecipitates were separated on an SDS gel and the presence of p63 or p73 on the immunoblots detected by mouse monoclonal antibodies 4A4 (Santa Cruz) and ER-15 (Neomarker) to p63 or p73, respectively. The presence of ASPP1 or ASPP2 was detected with antibodies YX.7 and DX5410, respectively.
In some methods, larger amounts of cell lysate (2 mg) were immunoprecipitated with rabbit antibodies ASPP1.88 or BP77 to ASPP1 and ASPP2, respectively. The expression of ASPP1, ASPP2, p63γ and p73α was detected as described above.

Molecule	transactivation function of p53 on the mdm2 promoter ([1]; FIG. 8C, Ikb even in the presence of ASPP2)	stimulation of the promoter activity of mdm2 and cyclin G [1]	stimulation of the transactivation function of p53 on the Bax promoter ([1]; co-expression with p53, FIG. 8B)	promoter activity of PIG-3 [1]	stimulation of the transactivation function of p53 ([1]; versions of ASPP2 co-expressed with p53, FIG. 3)	transactivation function of mutant p53 181C on the Bax gene promoter [2]	apoptosis on expression in cells with endogenous wild-type p53 [3]	interaction with p53 by immunoprecipitation and western blot [4]	interaction with p63γ in vitro [5]	interaction with p63γ in vivo [5]	stimulation of the transactivation function of p53 on the Bax promoter ([1]; Example 16, FIGS. 14A and 14B)
ASPP2: full length 1128 amino acid protein, SEQ ID NO: 4 (protein, listed as Homo sapiens) MMPMFLTVYLSNNEQHFTEVPVTPETICRDVVDLCKEPGESDCHLAEVWCGSERPVADNERMFDVLQRFGSQRNEVRFFLRHERPPGRDIVSGPRSQDPSLKRNGVKVPGEYRRKENGVNSPRMDLTLAELQEMASRQQQQIEAQQQLLATKEQRLKFLKQQDQRQQQQVAEQEKLKRLKEIAENQEAKLKKVRALKGHVEQKRLSNGKLVEEIEQMNNLFQQKQRELVLAVSKVEELTRQLEMLKNGRIDSHHDNQSAVAELDRLYKELQLRNKLNQEQNAKLQQQRECLNKRNSEVAVMDKRVNELRDRLWKKKAALQQKENLPVSSDGNLPQQAASAPSRVAAVGPYIQSSTMPRMPSRPELLVKPALPDGSLVIQASEGPMKIQTLPNMRSGAASQTKGSKIHPVGPDWSPSNADLFPSQGSASVPQSTGNALDQVDDGEVPLREKEKKVRPFSMFDAVDQSNAPPSFGTLRKNQSSEDILRDAQVANKNVAKVPPPVPTKPKQINLPYFGQTNQPPSDIKPDGSSQQLSTVVPSMGTKPKPAGQQPRVLLSPSIPSVGQDQTLSPGSKQESPPAAAVRPFTPQPSKDTLLPPFRKPQTVAASSIYSMYTQQQAPGKNFQQAVQSALTKTHTRGPHFSSVYGKPVIAAAQNQQQHPENIYSNSQGKPGSPEPETEPVSSVQENHENERIPRPLSPTKLLPFLSNPYRNQSDADLEALRKKLSNAPRPLKKRSSITEPEGPNGPNIQKLLYQRTTIAAMETISVPSYPSKSASVTASSESPVEIQNPYLHVEPEKEVVSLVPESLSPEDVGNASTENSDMPAPSPGLDYEPEGVPDNSPNLQNNPEEPNPEAPHVLDVYLEEYPPYPPPPYPSGEPEGPGEDSVSMRPPEITGQVSLPPGKRTNLRKTGSERIAHGMRVKFNPLALLLDSSLEGEFDLVQRIIYEVDDPSLPNDEGITALHNAVCAGHTEIVKFLVQFGVNVNAADSDGWTPLHCAASCNNVQVCKFLVESGAAVFAMTYSDMQTAADKCEEMEEGYTQCSQFLYGVQEKMGIMNKGVIYALWDYEPQNDDELPMKEGDCMTIIHREDEDEIEWWWARLNDKEGYVPRNLLGLYPRIKPRQRSLA	very little effect	very modest stimulation	about 8 fold	specifically stimulated	about 7 fold	unable to stimulate	induced apoptosis	interact in vivo	co-immunoprecipitated	co-immunoprecipitated transfected p63γ and p73α	–
ASPP1: Apoptosis Stimulating Protein 1, protein of SEQ ID NO: 2, expressed from a transfected plasmid (protein, listed as Homo sapiens) MMPMILTVFLSNNEQILTEVPITPETTCRDVVEFCKEPGEGSCHLAEVWRGNERPIPFDHMMYEHLQIWGPRREEVKFFLRHEDSPTENSEQGGRQTQEQRTQRNVINVPGDKRTEYGVGNPRVELTLSELQDMAARQQQQIENQQQMLVAKEQRLHFLKQQERRQQQSISENEKLQKLKERVEAQENKLKKIRAMRGQVDYSKIMNGNLSAEIERFSAMFQEKKQEVQTAILRVDQLSQQLEDLKKGKLNGFQSYNGKLTGPAAVELKRLYQELQIRNQLNQEQNSKLQQQKELLNKRNMEVAMMDKRISELRERLYGKKIQLNRVNGTSSPQSPLSTSGRVAAVGPYIQVPSAGSFPVLGDPIKPQSLSIASNAAHGRSKSANDGNWPTLKQNSSSSVKPVQVAGADWKDPSVEGSVKQGTVSSQPVPFSALGPTEKPGIEIGKVPPPIPGVGKQLPPSYGTYPSPTPLGPGSTSSLERRKEGSLPRPSAGLPSRQRPTLLPATGSTPQPGSSQQIQQRISVPPSPTYPPAGPPAFPAGDSKPELPLTVAIRPFLADKGSRPQSPRKGPQTVNSSSIYSMYLQQATPPKNYQPAAHSALNKSVKAVYGKPVLPSGSTSPSPLPFLHGSLSTGTPQPQPPSESTEKEPEQDGPAAPADGSTVESLPRPLSPTKLTPIVHSPLRYQSDADLEALRRKLANAPRPLKKRSSITEPEGPGGPNIQKLLYQRFNTLAGGMEGTPFYQPSPSQDFMGTLADVDNGNTNANGNLEELPPAQPTAPLPAEPAPSSDANDNELPSPEPEELICPQTTHQTAEPAEDNNNNVATVPTTEQIPSPVAEAPSPGEEQVPPAPLPPASHPPATSTNKRTNLKKPNSERTGHGLRVRFNPLALLLDASLEGEFDLVQRIIYEVEDPSKPNDEGITPLHNAVCAGHHHIVKFLLDFGVNVNAADSDGWTPLHCAASCNSVHLCKQLVESGAAIFASTISDIETAADKCEEMEEGYIQCSQFLYGVQEKLGVMNKGVAYALWDYEAQNSDELSFHEGDALTILRRKDESETEWWWARLGDREGYVPKNLLGLYPRIKPRQRTLA	–	very modest stimulation	–	specifically stimulated	–	unable to stimulate	induced apoptosis	–	co-immunoprecipitated	co-immunoprecipitated transfected p63γ and p73α	around 6 fold
